Experimental findings from paper PMC9192595, “Dynamic interaction of BRCA2 with telomeric G-quadruplexes underlies telomere replication homeostasis” are described below.

Series [1] deals with T1, BRCA2OB (human, UniProt P51587 2665-3197).
T1 sequence: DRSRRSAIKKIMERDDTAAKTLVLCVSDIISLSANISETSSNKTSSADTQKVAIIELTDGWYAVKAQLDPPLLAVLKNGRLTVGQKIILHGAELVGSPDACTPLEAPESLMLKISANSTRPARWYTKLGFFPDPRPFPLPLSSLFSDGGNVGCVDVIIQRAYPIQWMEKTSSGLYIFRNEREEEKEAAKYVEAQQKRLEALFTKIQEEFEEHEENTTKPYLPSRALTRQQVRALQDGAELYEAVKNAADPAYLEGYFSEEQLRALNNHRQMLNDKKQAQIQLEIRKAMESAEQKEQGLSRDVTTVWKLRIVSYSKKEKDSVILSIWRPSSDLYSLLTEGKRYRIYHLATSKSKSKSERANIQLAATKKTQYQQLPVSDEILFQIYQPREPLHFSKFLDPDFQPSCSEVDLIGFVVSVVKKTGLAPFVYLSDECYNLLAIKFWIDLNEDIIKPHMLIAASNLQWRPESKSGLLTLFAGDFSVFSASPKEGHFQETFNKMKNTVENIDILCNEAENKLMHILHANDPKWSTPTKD
As to the kind of experiment: EMSA; 100 mM KCl; EMSA: 10 nM probe, 50 mM Tris-HCl pH 7.5, 100 mM KCl, 2 mM b-ME, 10% glycerol, probe pre-incubated 37 C, gel 4 C (RAD51: +1 mM MgCl2, 2 mM ATP); smFRET: 50 mM Tris-HCl pH 7.9, 100 mM KCl, 20 mM NaCl, 1 mM DTT, 0.1 mg/ml BSA, 9% glycerol, 37 C. The note with it: protein: recombinant, tags: N-MBP, C-6xHis, label: 5' 32P. Background: Mobility shift assays separate free from complexed probe on a gel.

The target of series [2] is T1, BRCA2OB. As to the kind of experiment: smFRET; 0.1 and 1 uM BRCA2OB; EMSA: 10 nM probe, 50 mM Tris-HCl pH 7.5, 100 mM KCl, 2 mM b-ME, 10% glycerol, probe pre-incubated 37 C, gel 4 C (RAD51: +1 mM MgCl2, 2 mM ATP); smFRET: 50 mM Tris-HCl pH 7.9, 100 mM KCl, 20 mM NaCl, 1 mM DTT, 0.1 mg/ml BSA, 9% glycerol, 37 C. The note with it: protein: recombinant, tags: N-MBP, C-6xHis, label: 3' Cy3, stem 5' Cy5, 3' biotin.

Where [3] appears, read: 29 bp stem with 3' G4 overhang 30 nt.

Substitutions are numbered along the chain they refer to.

B1: TelG5:TelC5 (dsDNA)
DNA 1: GGTTAGGGTTAGGGTTAGGGTTAGGGTTAG
DNA 2: CTAACCCTAACCCTAACCCTAACCCTAACC
As for B1, the binding result with BRCA2OB [1] (blunt) is “no binding”.

B2: TelC5 (ssDNA)
DNA: B1 DNA 2
On to B2, for which the binding result with BRCA2OB [1] is “no binding”.

B3: TelG6 (structured_DNA)
DNA: GGTTAGGGTTAGGGTTAGGGTTAGGGTTAGGGTTAG
Regarding B3, in the series with BRCA2OB [1] (intramolecular G4), the binding result is recorded as “binds”.

B4: TelG5 smFRET (mixed)
DNA 1: GCGTGGCACCGGTAATAGGAGATAGGAGAGGTTAGGGTTAGGGTTAGGGTTAGGGTTAG
DNA 2: TCTCCTATCTCCTATTACCGGTGCCACGC
modifications: 3' amino; stem 5' amino
As to B4, the binding result with BRCA2OB [2] (setting [3]) was “binds”.

B5: TelG5TTT smFRET (mixed)
DNA 1: B4 DNA 1 with A34T, A40T, A46T, A52T, A58T
DNA 2: TCTCCTATCTCCTATTACCGGTGCCACGC
modifications: 3' amino; stem 5' amino
On to B5, for which the binding result with BRCA2OB [2] (setting [3]) was “binds”.

B6: TelG3 (ssDNA)
DNA: GGTTAGGGTTAGGGTTAG
Consider B6, for which the binding result in the series with BRCA2OB [1] is listed as “no binding”.

B7: TelG5GAG (ssDNA)
DNA: AGTTAGAGTTAGAGTTAGAGTTAGAGTTAG
Take B7: the binding result with BRCA2OB [1] (unfolded) is listed as “no binding”.

B8: TelG5TT smFRET (mixed)
DNA 1: GCGTGGCACCGGTAATAGGAGATAGGAGAGGTTTGGGTTGGGTTGGGTTGGGTTTG
DNA 2: TCTCCTATCTCCTATTACCGGTGCCACGC
modifications: 3' amino; stem 5' amino
B8: the binding result with BRCA2OB [2] (29 bp stem with 3' G4 overhang 27 nt) is given as “binds”.
